Results as given in the RNAGym collection of RNA variant scans (doi:10.1073/pnas.2313332121).

B1: TPR t1 (parent)
chain: GACCAAUCUGCCCUCAGAGCUCGAGAACAUCUUCGGAUGCAGAGGAGGCAGGCUUCGGUGGCGCGAUAGCGCCAACGUCCUCAACCUCCAAUGCAUCCCACCACAUGAUGAUGCCUGAAGAGCCUUGGUUUUUUG

Variants of: B1
Test: polymerase ribozyme fitness, log enrichment relative to wild type (log ratio); higher = more active; in vitro selection for triplet polymerase activity
How it was run: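 Fitness measures genotype enrichment against wild-type enrichment on a logarithmic scale, with inverse-variance-weighted averaging of replicates. The logarithm is base 2, and genotypes were kept only with ≥10 input reads and ≥1 read per output in Illumina sequencing. The sequenced libraries came from one triplicate in vitro selection round, including frozen incubation at −7 °C, of PCR-built, transcribed mutant libraries of each subunit of a heterodimeric triplet polymerase ribozyme.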

| Variant | polymerase ribozyme fitness (log ratio) |
| --- | --- |
| GACCACUCUGCCCUCAGAGCUCGAGAACAUCUUCGGAUGCAGAGGAGGCAGGCUUCGGUGGCGCGAUAGCGCCAACGUCCUCAACCUCCAAUGCAUCCCACCACAUGAUGAUGCCUGAAGAGCCUUGGUUUUAUG [A6C U133A] | -0.897 |
| GACCAAUCUGCCCUCAGAGCUCGAGAACAUCUUCGGAUGCAGAGGAGGCAGGCUUCGGUGGCGCGAUAGCGCCAACGUCCUCAACCUCUAAUGCAUCCCACCACAUGAUUAUGCCUGAAGGGCCUUGGUUUUUUG [C89U G110U A121G] | -1.62 |
| GACCAAUCUGCCCUCAGAGCUCGAGAACAUCUUCGGAUGCAGCGGAGGCAGGCUUCGGUGGCGCGAUAGCGCCAACGUCCUCAACCUCCAAUUCAUCCCACCACAUGAUGAUGCCUGAAGAGCCUUGGUUUUUUG [A43C G93U] | -2.59 |
| GACCAAUCUGCCCUGAGAGCUCGAGAACAUCUUCGGAUGCAGAGGAGGCAGGCUUCGGUGGCGCGAUAGCGCCAACGUCCUCAACCUCCAAUGCAUCCCACCACAUGAUGAUGCCUGAAAAGCCUUGGUUUUUUG [C15G G120A] | -1.53 |
| GACCAAUCUACCCUCAGAGCUCGCGAACGUCUUUGGAUGCAGAAGAGGCAGGUUUCGGUGGCGCGAUAGCGCCAACGUCCUCAACCUCCAAUGCAUCUCACCACAUGAUGUUGCCUGAAGAGCCUUGGUUUUUUG [G10A A24C A29G C34U G44A C53U C98U A111U] | -7.41 |
| GACCAAUCGGCCCUCAGAGCUCGGGAACAUCUUCGGAUGCAGAGGAGGCAGGCUUCGGUGGCGCGAUAGCGCCAACGUCCUCAACCUCCAAUGCAUCCCACCACAUGAUGAUGCCUGAAGAGCCUUGGUUUUUUG [U9G A24G] | -0.443 |
| GACCACUCUGCCCUCAGAGCUCGAGAGCAUCUUCGGAUGCAGAGGAGGCAGGCUUCGGUGGCGCGAUAGCGCCAACGUCCUCAACCUCCAAUGCAUCCCACCACAUGAUGAUGCCUGAAGCGCCUUGGUUUUUUG [A6C A27G A121C] | -0.0909 |
| GACCAAUCUGCCCUCAGAGCUCGAGAACAUCUUCGGAUGCAGAGGAGGCAGGCUUCGGCGGCGCGAUAGCCCCAACGUCCUCAACCUCCAAUGCAUCCCACCACAUGAUGAUGCCUGAAGAGCCUUGGUUUUUUG [U59C G71C] | -3.63 |
| GACCAAUCUGCCCUCAGAGCUCGAGAACAUCUUCGAAUGCAGAGGAGGCAGGCUUCGGUGGCGCGAUAGCGUCAACGUCCUCAACCUCCAAUGCAUCCCACCACAUGAUGAUGCCUGAAGAGCCUUGGUUUUUUG [G36A C72U] | -1.29 |
| GACCAAUCUGCCCUCAGAGCUUGAGAACAUCUUCGGAUGGAGAGGAGGCAGGCUUCGGUGGCGCGAUAUCGCCAACGUUCUGAACCUCCAAUGCAUCCCACCACAUGAUGAUGCCUGAAGAGCCUUGGUUUUUUG [C22U C40G G69U C79U C82G] | -3.66 |
| GACCAAUCUGCGCUCAGAGCUCGAGAACAUCUUCGGAUGCAGAGGAGGCAGGCUUCGGUGGCGCGAUAGUGCCAACGUCCUCAACCUCCAAUGCAUCCCACCACAAGAUGAUGCCUGAAGAGCCUUGGUUUUUUG [C12G C70U U106A] | 0.277 |
| GACCAAUCUGCCCUCAGAGUUCGAGAACAUCUUCGGAUGCAGAGGAGGCGGGCUUCGGUGGCGCGAUAGCGCCAACGUCCUCAACCUCCAAUGCAUCCCACCACAUGAUGAUGCCUGAAGAGCCUUGGUUUUUUG [C20U A50G] | -1.33 |
| GACCAAUCUGCCCUCAGAGCUCGAGAUCAUCUUCGGAUGCAGAGGAGGCAGGCAUCGGUGGCGCGAUAGCGCCAUCGCCCUCAACCUCCAAUGCAUCCCACCACAUGAUGAUGCCUGAAGAGCCUUCGUUUUUUG [A27U U54A A75U U78C G127C] | -6.04 |
| GACCAAUCUGCCCUCAGAGCUCGAGAACAUAUUCGGAUGCAGAGGAGGCAGGCUUCGGUGGCGCGAUAGCGGCAACGUCCUCAACCUCCAAUGCAUCCCACCACAUGAUGAUGCCUGAAGAGCCUUGGUUUUUUG [C31A C72G] | -5.43 |
| GACCAAUCUUCCCUCAGAGCUCGAGAACAUCUUCGGAUGCAGAGGAGGCAGGCUUCGGCGGCGCGAUAGCGCCAACGUCCUCAACCUCCAAUGCUUCCCACUACAUGAUGAUGCCUGAAGAGCCUUGGUUUUUUG [G10U U59C A95U C102U] | -3.58 |
| GAACAAUCUGCUCUCAGAGCUCGAGAACAUCUUCGGAUGCAGAGGAGGCAGGCUUCGGUGGCGCGAUAGCGCCAACGUCCUCAACCUCCAAUGCAUCCCACCACAUGAUGAUGCCUGAAGAGCCUUGGUUUUUUG [C3A C12U] | -0.986 |
| GACCAAUCUGCCCUCAGAGCUCGAGAACGUCUUCGGAUGCAGAGGAGGCAGGCUUCGGUGGCGCGAUAGCGCCAACGUCCUCAACCUCCAAUGCAUCCCACCACUUGAUGAUGCCUGAAGAGCCUUGGUUUUUUG [A29G A105U] | -4.23 |
| GACCAAUCUGCCCUCAGAGCUCGAGAACAUCUUCGGAUGCUGAGGACGCAGGCUUCGGUGGCGCGAUAGCGCCAUCGUCCUCAACCUCCAAUGCAUCCCACCACAUGAUGAUGCCUGAAGAGCCUUGGUUUUUUG [A41U G47C A75U] | -3.07 |
| GACCAAUCUGCCCGCAGAGCCCGAGAACAUCUUCGGAUGCAGAGGAGGCAGGCUUCGGUGGCGCGAUAGCGCCAACGUCCUCAACCUCCAAUGCAUCCCACCACAUGAUGAUGCCUGAAGAGCCUUGGUUUUUUG [U14G U21C] | -2.74 |
| GACCAAUCUGCCCUCAGAGCUCGAGAACAUCUUCGGAUGUAGAGGAGGCAGGCUUCGGUGGGGCGAUAGCGCCAACGUCCUCAACCUCCAAUGCAUCCCACCACAUGAUGAUGCCUGAAGAGCCUUCGUUUUUUG [C40U C62G G127C] | -3.27 |
| GACCAAUCUGCCCUCAGAGCUUGAGAACAUCUUCGGAUGCAGAGGAGGCAGGCUUCGGUGGCGCGAUAGCUCCAACGUCCUCAACCUCCAAUGCAUCCCACCACAUGAUGAUGCCUGAAGAGCCUUGGUUUUUUG [C22U G71U] | -4.03 |

| Variant | polymerase ribozyme fitness (log ratio) |
| --- | --- |
| GACCAAUCUGCCCUCAGAGCUCGAGAACAUCUUCGGAUGCAGAGGAGGCAGGCUUCGGUGGCACGAUAGCGCCAACGUCCUCAACCUCCAAUGCAUCCCACCACAUGAUGAUGCCUGAAGUGCCUUGGUUUUUUG [G63A A121U] | 0.59 |
| GACCAAUCUGCCCUCAGAGCUCGAGAACAUCUUCGGAUGCAGAGGAGGCAGGCUUCGGUGGCGCGAUAGCGCCAACGUCCUCAACCUCCAAUCCAUCCCACCACAUGAUGAUGCCUGAAGAGCCUUGGUUGUUUG [G93C U131G] | -1.28 |
| GACCUAUCUGCUCUCAGAGCGCGAGACCAUCUUCGGAUGCAGAGGGGGCAGGCUUCGGUGGCGCGAUAGCGCCAACGUCCUCAACCUCCGAUGCAUCCCACCACAUGAUGAUGCCUGAAUAGCCUUGGUUUUUUG [A5U C12U U21G A27C A46G A90G G120U] | -2.99 |
| GACCAAUCUGGCCUCAGAGCUCGAGAACAUCUUCGGAUGCAGAGGAGGCAGGCUUCGGUGGCGCGAUAGCGCCAACGUCCUCAACCUCCAAUGCAGCCCACCACAUGAUGAUGCCUGAAGAGCCUUGGUUUUUUG [C11G U96G] | -0.325 |
| GACCAAUCCGCCCUCAGAGCUCGAGAACAUAUUCGGAUGCAGAAGAUGCAGGCUUCGGUGGCGCGAUAUCGCCAACGUCCUCAACCUUCAAUGCAUCCCACCACAUGAUGAUGCCUGUAGAGCCUUGGUUUUGUG [U9C C31A G44A G47U G69U C88U A118U U133G] | -4.68 |
| GACCAAUCAGCCCUCAGAGCUCGAGAACAUCUUCGGAUGCAGAGGAGGCAGGCUUCGGUGGCGCGAUAGCGCCAACGUCCUCAACCUCCAAUGCAUCCCACCGCAUGAUGAUGCCUGAAGAGCCUUGGUUUUUUG [U9A A103G] | -3.9 |
| GACCAAUCUGCCCUCAGAGCUCGAGAACGUCUUCCGAUGCAGAGAAGGCAGGCUUCGGUGGCGCGAUAGCGCCAACGUCCUCAACCUCCAAUGCAUCCCGCCACAUGAUGACGCCCGAAGAGCCUUGGUUUUUUG [A29G G35C G45A A100G U112C U116C] | -7.03 |
| GACCAAUCUGCCCUCAGAGCUCGAGAACAUCUUCGGAUGCAGAAGAGGCAGGCUUCGGUGGCGCGAUAGCGCCAACGUCAUCAACCUCCAAUGCAUCCCACCACAUGAUGAUGCCUGAAGAGCCUUGGUUUUUUG [G44A C80A] | -3.93 |
| GACCAAUCUGCCCUCAGAGCUCGAGAACAUCUUCGCAUGCAGAGGAGGCAGGCUUCGGUGGCGCGAUAGCGCCAACGUCCUCAACCUCCAAUGCAUCCCACCACAUGAUGAUGCCUGAAGAGCCUUGGUGUUUUG [G36C U130G] | -1.39 |
| GACUAAUCUGCCCUCAGAGCUCGAGAACAUCUUCGGAGGCAGAGGAGGCAGGCUUCGGUGGCGCGAUAGCGCCAACGUCCUCAACCUCCAAUGCAUCCCACCACAUGAUGAAGCCUGAAGAGCCUUGGUUUUUUG [C4U U38G U112A] | -0.207 |
| GACCAAUCUGCCCUCAGAGCUCGAGAACAUCUUCGGAUGCAGAGGAGGCAGGCUUCGGUGGCUCGAUAGCGCCAACGUCCUCAACCUCCAAUGCAUCCCACCACAUGAUGCUGCCUGAAGAGCCUUGGUUUUUUG [G63U A111C] | -1.67 |
| GACCAAUCUGCCCACAGAGCUCGGGAACAUCUUCGGAUGCAGAGGAGGCAGGCUUCGGUGGCGCGAUAGCGCCAACGUCCUCAACCUCCAAUGCAUCCCACCACAUGAUGAUGCCUGAGGAGCCUUGGUUUUUUG [U14A A24G A119G] | -4.72 |
| GACCAAUCUGCCCUCAGAGCUCGAGAACAUCUUCGGAUGCAGAGGAGGCAGGCGUCGGUGGCGCGAUAGCGCCAACGUCCUCAACCUCCAAUGCAUCCCACCAGAUGAUGAUGCCUGAAGAGCCUUGGUUUUUUG [U54G C104G] | -7.42 |
| GACCAAUCUACCUUCAGAGCUCGAGAACAUCUUCGGAUGCAGAGUAGGCAGGCUUCGGUGGCGCGAUAGCGCCAACGUCCUCAACCUCCAAUGCAUCCCACCACAUGAUGAUGCCUAAAGAGCCUUGGUUUUUUG [G10A C13U G45U G117A] | -0.718 |
| GACCAAUCUGCCCUCAGAGCUCGAGAACAUCUUCGGAUGCAGAGGAGGCAGACUUCGGUGGCGCGAUAUCGCCAACGUGCUCAACCACCUAUGCAUCCCACCACAUGAUGAUGCCAGAAGAGCCUUGGUUUUUUG [G52A G69U C79G U87A A90U U116A] | -3.3 |
| GACCAAUCUGCCCUCAGAGCUCGAGAACAUCUUCGGAUGCAGCGGAGGCAGGCUUCGGUGGCGCGAUAGCGCCAACGUCCUCAACCACCAAUGCAUCCCACCACAAGAUGAUGCCUGAAGAGCCUUGGUUUUUUG [A43C U87A U106A] | -2.43 |
| GACUAAUCCGCCCUCAGAGCUCGAGAACAUCUUCGGAUGCUGAGGAGGCAGGCUUCGGUGGCGCGAUAGCGCCAACGUCCUCAACCUCCAAUGCAUCCCACCACAUGAUGAUGCCUGAAGAGCCUUGGUUUUUUG [C4U U9C A41U] | -0.927 |
| GACCAAUCUGCCCUCAGAGCUCGAGAACAUCUUCGGAGGCAGAGGAGGCAGGAUUCGGUGGCGCGAUAGCGCCAACGUCCCCAACCUCCAAUGCAUCCCAUCACAUGAUGAUGCCUGAAGAGCGUUGGUUUUUUG [U38G C53A U81C C101U C124G] | 1 |
| GACCAAUCUGCCCUCAGAGCUCGAGAAGAUCUUCGGAUGCAGAGGAGGCAGGCUUCGGUGGCACGAUAGCGCCAACGUCCUCAACCUCCAAUUCAUCCCACCACAUGAUGAUGACUGCAGAGCCUUGGUUUUUUG [C28G G63A G93U C114A A118C] | -7.47 |
| GACCAAUCUACCCUCAGAACUCGAGAACAUCUUCGGAUGCAGAGGAGGCAGGCUUCGGUGGCGCGAUAGAGCCAACGUCCUCAACCUCCAAUGCAACCCACCAUAUGAUGAUGCCUGAAGAGCCUUGGUUUUUUG [G10A G19A C70A U96A C104U] | -6.15 |
| GACCAAGCUGCCCUAAGAGCUCGAGAACAUCUUCGGAUGCAGAGGAGGCAGGCUUCGCUGGCGCGAUAGCGCCAACGUCCUCAACCUCCAAUGCAUCCCACCACAUGAUGAUGCCUGAAGAGCCUUGGUUUUUUG [U7G C15A G58C] | -0.977 |
